# Assay results reported in PMC12502779.
# Target: T1, 6xHis-OxyR (Salmonella enterica serovar Typhi ISP1820) (UniProt Q8XF66)
# T1 sequence: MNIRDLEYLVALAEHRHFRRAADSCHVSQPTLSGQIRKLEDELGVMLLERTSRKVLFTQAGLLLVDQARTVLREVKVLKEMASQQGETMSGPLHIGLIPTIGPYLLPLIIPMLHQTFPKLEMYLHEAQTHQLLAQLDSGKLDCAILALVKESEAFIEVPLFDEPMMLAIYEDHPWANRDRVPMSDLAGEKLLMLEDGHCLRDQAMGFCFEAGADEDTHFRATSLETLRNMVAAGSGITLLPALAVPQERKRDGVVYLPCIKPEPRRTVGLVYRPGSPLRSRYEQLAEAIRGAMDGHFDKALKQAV
# Assay: EMSA
# Conditions: EMSA with 10 nM probe, 5% acrylamide gel, RedSafe stain; buffer, salt, pH and temperature not given (as previously described, ref 27)
sequence,measurement,value
GAAATCGGGCGTGGCATTCTGATTACTCAACAGTAATTCACGAACCCTTTTCTCGATCTCTTTCGCTGTCGCCGGGTTCTCTTTCAGCCAGGTAGTCGCGTTCGCTTTACCCTGGCCAATCTTCT (double strand) [recA],binding,no binding
